The text below walks through data of patent US20140037624A1.

Assay [1] deals with T1, human FGFR4-Fc chimeric protein (human) (UniProt P22455).
T1 sequence: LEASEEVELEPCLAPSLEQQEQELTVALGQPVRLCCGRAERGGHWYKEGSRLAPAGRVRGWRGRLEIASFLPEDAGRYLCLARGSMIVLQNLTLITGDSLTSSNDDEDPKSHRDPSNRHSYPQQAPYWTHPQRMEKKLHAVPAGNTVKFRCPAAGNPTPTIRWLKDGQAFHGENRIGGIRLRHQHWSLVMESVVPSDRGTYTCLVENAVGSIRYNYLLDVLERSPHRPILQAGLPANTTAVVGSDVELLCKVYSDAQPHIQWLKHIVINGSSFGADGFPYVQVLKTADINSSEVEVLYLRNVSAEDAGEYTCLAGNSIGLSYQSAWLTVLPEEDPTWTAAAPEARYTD
In words: solid phase binding assay, LD1 on immobilized hFGFR4-Fc, OD 450 nm.

Assay [2] addresses T2, mouse FGFR4-Fc chimeric protein (mouse) (UniProt Q03142).
T2 sequence (looked up): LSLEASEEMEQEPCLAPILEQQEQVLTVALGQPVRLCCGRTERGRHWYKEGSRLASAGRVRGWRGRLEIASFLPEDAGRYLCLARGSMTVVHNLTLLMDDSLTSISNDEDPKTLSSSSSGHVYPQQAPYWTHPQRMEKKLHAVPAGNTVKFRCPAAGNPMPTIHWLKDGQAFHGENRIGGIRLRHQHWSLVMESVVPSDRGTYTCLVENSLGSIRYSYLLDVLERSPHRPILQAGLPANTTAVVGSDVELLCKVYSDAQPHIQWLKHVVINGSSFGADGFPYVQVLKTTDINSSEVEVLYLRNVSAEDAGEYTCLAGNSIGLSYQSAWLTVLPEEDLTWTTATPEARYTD
In words: solid phase binding assay, LD1 on immobilized mFGFR4-Fc, OD 450 nm.

In assay [3] the target is human FGFR4 at the cell surface (stably transfected HEK293 and L6 cells; endogenous on human liver cancer cell lines) (human) (UniProt P22455). In words: flow cytometry on HEK293 cells stably transfected with hFGFR4, RFU. For orientation: Flow cytometry measures light scatter and fluorescence of single cells or particles in a stream.
The target is the same in assay [4]. In words: cell-based or functional assay.

A word on the EC50 (read off the curve): it is the midpoint of the concentration-response curve. The low end stands for an effect from little substance, the high end for a need for much substance.

B1: chimeric LD1 (murine LD1 variable domains with human kappa and human IgG1 constant domains) (antibody, V domains shown)
VH: EVQLQQPGAVLVRPGTSVKLSCKASGYTFTNHWMNWVKQRPGQGLEWIGMIHPSDSETTLDQKFKDKATLTVDKSSSTAYMQLNRPTSEDSAVYYCTRGDISLFDYWGQGTTVTVSS
VL: DIQMTQTTSSLSASLGDRVTITCRTSQDISNFLNWYQQKPDGTFKILISYTSRLHSGVPSRFSGSGSGTDYSLTISTLEQEDFATYFCQQGNALPYTFGGGTKLEIE
Consider B1, for which the EC50 (read off the curve) in assay [1] turned out to be 0.04 µg/mL. The same molecule came in with an EC50 (read off the curve) in assay [2] of 0.04 µg/mL. The EC50 (read off the curve) in assay [3] is 0.5 µg/mL. In assay [4], the CYP7α1 expression in HEP3B cells with added FGF19 stood at 67%, the CYP7α1 expression in HEP3B cells without added FGF19 came out at 2 fold, the CYP7α1 expression in HUH7 cells in the absence of FGF19 was 3.5 fold and the CYP7α1 expression in HUH7 cells in the presence of FGF19 is 2.9 fold. Also, in assay [4], the decrease of basal c-Fos expression in JHH5, JHH7 and HUH7 cell lines amounted to 50%; the decrease of basal c-Fos expression in the PLC/PRF/5 cell line is 75%; the maximum inhibition of colony formation, HUH7 cells stood at 50%; the maximum inhibition of colony formation, JHH5 cells came out at 26%. Also, in assay [4], the maximum inhibition of colony formation, PLC/PRF/5 cells is 82%.
